In test [1] the target is T1, PFV-Gag-NtD (amino terminal domain of Prototypic Foamy Virus Gag, residues 1-179) (Prototypic foamy virus (PFV), UniProt P14349 1-179).
T1 chain: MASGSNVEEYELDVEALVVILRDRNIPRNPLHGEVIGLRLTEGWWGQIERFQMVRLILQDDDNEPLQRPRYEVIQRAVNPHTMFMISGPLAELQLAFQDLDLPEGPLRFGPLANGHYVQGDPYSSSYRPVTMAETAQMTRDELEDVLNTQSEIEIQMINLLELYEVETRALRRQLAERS
In words: AUC.

In test [2] the target is T2, PFV-Gag-NtD L21S (Prototypic foamy virus (PFV), UniProt P14349 1-179, L21S).
T2 construct: Gag of Prototypic Foamy Virus, residues 1-179 (Gag-NtD) with L21S
T2 sequence (looked up): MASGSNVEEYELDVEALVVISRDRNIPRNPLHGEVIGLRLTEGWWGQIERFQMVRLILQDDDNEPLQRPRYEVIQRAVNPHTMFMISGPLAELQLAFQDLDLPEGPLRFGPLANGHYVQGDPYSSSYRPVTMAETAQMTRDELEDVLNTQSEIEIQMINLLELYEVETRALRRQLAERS
In words: AUC; sedimentation velocity of 75 µM equimolar mixtures of Gag-NtD and Env peptide, absorbance at 280 nm; bound fraction from the integrated absorbance of the 3S species in C(S). The conditions noted are these: both partners purified.

Test [3] has as its target T3, PFV-Gag-NtD V14S/L21S (Prototypic foamy virus (PFV), UniProt P14349 1-179, V14S | L21S).
T3 construct: Gag of Prototypic Foamy Virus, residues 1-179 (Gag-NtD) with V14S and L21S; also called Val14/Leu21 to serine
T3 sequence (looked up): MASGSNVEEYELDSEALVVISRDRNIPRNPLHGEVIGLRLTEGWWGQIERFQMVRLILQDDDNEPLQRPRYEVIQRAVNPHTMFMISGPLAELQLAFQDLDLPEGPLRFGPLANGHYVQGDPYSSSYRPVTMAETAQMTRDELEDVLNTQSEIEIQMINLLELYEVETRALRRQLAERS
The description is as above. The note with it: both partners purified.

Test [4] addresses T4, PFV-Gag-NtD V14S/V18S (Prototypic foamy virus (PFV), UniProt P14349 1-179, V14S | V18S).
T4 construct: Gag of Prototypic Foamy Virus, residues 1-179 (Gag-NtD) with V14S and V18S
T4 sequence (looked up): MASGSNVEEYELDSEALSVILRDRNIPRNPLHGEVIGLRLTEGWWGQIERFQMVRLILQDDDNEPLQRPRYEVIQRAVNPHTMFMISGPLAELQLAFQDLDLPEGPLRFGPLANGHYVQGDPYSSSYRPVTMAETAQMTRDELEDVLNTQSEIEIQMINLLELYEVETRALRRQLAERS
The test is described as above. The note with it: both partners purified.

Test [5] has as its target T5, PFV-Gag-NtD (amino terminal domain of Prototypic Foamy Virus Gag, residues 1-179) (Prototypic foamy virus (PFV), UniProt P14349 1-179).
T5 construct: source: E. coli Rosetta 2 (DE3), purified (Ni-NTA, Superdex 200 SEC); not shown: His-tag, N-terminal, kept
T5 sequence: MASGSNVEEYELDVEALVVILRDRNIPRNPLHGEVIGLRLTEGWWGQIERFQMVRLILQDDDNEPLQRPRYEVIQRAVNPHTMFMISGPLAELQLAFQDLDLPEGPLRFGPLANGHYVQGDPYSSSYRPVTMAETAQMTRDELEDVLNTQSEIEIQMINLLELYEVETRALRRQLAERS
The description is as above. The conditions noted are these: both partners purified.

Test [6] concerns the target T6, PFV-Gag-NtD V18S (Prototypic foamy virus (PFV), UniProt P14349 1-179, V18S).
T6 construct: Gag of Prototypic Foamy Virus, residues 1-179 (Gag-NtD) with V18S
T6 sequence (looked up): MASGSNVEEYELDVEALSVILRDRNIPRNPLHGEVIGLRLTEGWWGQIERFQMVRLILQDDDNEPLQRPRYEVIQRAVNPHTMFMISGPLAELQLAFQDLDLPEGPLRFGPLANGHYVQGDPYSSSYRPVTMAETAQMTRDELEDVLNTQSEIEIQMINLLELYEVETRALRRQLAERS
The test is described as above. The conditions noted are these: both partners purified.

For test [7], the target named is T7, PFV-Gag-NtD N29Q (Prototypic foamy virus (PFV), UniProt P14349 1-179, N29Q).
T7 construct: Gag of Prototypic Foamy Virus, residues 1-179 (Gag-NtD) with N29Q
T7 sequence (looked up): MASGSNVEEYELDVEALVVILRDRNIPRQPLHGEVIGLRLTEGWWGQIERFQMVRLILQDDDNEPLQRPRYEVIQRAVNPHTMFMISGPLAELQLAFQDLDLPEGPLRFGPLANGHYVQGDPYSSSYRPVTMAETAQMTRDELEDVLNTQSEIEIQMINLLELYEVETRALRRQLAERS
The description is as above. The conditions noted are these: both partners purified.

Test [8] concerns the target T8, PFV-Gag-NtD L17S (Prototypic foamy virus (PFV), UniProt P14349 1-179, L17S).
T8 construct: Gag of Prototypic Foamy Virus, residues 1-179 (Gag-NtD) with L17S
T8 sequence (looked up): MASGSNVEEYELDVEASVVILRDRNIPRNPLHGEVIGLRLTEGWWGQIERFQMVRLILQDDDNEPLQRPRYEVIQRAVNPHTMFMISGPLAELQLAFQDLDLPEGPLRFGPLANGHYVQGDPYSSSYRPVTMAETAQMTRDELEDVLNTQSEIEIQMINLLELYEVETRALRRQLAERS
Described as above. The conditions noted are these: both partners purified.

Test [9] addresses T9, PFV-Gag-NtD L21N (Prototypic foamy virus (PFV), UniProt P14349 1-179, L21N).
T9 construct: Gag of Prototypic Foamy Virus, residues 1-179 (Gag-NtD) with L21N
T9 sequence (looked up): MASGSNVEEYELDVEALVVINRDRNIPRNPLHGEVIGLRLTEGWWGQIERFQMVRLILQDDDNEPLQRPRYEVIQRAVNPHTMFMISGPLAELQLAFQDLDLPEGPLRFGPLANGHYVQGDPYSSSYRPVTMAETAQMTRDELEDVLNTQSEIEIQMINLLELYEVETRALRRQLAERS
The test is described as above. The note with it: both partners purified.

B1: PFV Env leader peptide residues 1-20 (peptide, UniProt P14351 1-20, looked up)
peptide: MAPPMTLQQWIIWKKMNKAH
notes: Envelope (Env) protein of Prototypic Foamy Virus, N-terminal leader peptide region, residues 1-20 (Met1 to His20); the text names M1, A2, P3, P4, M5, T6, L7, Q9, W10, W13, M16, A19, H20; also called Env_(1-20); Env(1-20); source: synthetic peptide, bought HPLC purified: Pepceuticals Ltd
Turning to B1, the Kd (commonly the concentration at which binding is half-saturated) in test [1] came out at 7.5 µM. The “fold decrease of affinity against wt PFV-Gag-NtD” value in test [2] was found to be 5 fold; in [6] it was 2 fold; in test [8], 2 fold. In [3], the “fold reduction in binding against wt PFV-Gag-NtD” value is around 20 fold. Besides, the binding result in test [4], in [7] and in [9] was “binds” throughout. Besides, in test [5], the Ka amounted to 130000 M⁻¹.

For the origin of these results see PMC3649970, “A Unique Spumavirus Gag N-terminal Domain with Functional Properties of Orthoretroviral Matrix and Capsid” (PLoS Pathogens, 2013).
